According to IntAct's records for PubMed 18477474:

B1: Ras-related protein Rab-38 (Mus musculus), Q8QZZ8 (parent)
chain: MQTPHKEHLYKLLVIGDLGVGKTSIIKRYVHQNFSSHYRATIGVDFALKVLHWDPETVVRLQLWDIAGQERFGNMTRVYYREAMGAFIVFDVTRPATFEAVAKWKNDLDSKLTLPNGKPVSVVLLANKCDQGKDVLMNNGLKMDQFCKEHGFVGWFETSAKENINIDEASRCLVKHILANECDLLESIEPDIVKPHLTSPKVVSCSGCAKS
partner: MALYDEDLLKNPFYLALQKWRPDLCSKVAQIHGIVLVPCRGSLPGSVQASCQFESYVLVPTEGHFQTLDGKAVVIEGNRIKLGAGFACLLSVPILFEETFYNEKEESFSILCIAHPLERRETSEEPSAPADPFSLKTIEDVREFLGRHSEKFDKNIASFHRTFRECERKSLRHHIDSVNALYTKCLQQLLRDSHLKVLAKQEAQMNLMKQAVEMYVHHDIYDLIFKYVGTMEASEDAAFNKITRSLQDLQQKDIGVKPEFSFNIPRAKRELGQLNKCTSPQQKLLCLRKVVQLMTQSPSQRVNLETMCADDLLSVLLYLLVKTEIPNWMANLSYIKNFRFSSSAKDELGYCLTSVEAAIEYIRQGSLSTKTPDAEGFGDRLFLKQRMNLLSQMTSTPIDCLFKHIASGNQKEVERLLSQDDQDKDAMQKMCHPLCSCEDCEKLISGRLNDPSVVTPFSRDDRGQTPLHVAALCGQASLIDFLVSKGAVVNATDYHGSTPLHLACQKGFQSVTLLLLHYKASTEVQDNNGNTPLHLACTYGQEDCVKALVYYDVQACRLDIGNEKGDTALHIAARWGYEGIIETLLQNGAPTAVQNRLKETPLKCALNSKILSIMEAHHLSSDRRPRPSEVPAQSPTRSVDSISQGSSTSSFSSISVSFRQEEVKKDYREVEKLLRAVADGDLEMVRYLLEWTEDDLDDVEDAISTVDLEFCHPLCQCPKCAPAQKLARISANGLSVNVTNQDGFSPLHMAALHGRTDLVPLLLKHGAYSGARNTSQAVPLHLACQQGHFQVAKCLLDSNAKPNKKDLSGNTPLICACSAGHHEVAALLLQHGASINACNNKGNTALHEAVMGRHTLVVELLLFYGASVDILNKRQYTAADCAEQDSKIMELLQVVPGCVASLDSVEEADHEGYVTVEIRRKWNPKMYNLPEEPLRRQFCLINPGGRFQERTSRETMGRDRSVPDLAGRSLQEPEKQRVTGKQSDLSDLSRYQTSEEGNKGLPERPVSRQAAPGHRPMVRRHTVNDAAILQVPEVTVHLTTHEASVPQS

Variants of: B1
Details: with anr27_mouse Ankrd27, Q3UMR0

Variant	effect of a mutation on the interaction
MQTPHKEHLYKLLVIGDLGVGKNSIIKRYVHQNFSSHYRATIGVDFALKVLHWDPETVVRLQLWDIAGQERFGNMTRVYYREAMGAFIVFDVTRPATFEAVAKWKNDLDSKLTLPNGKPVSVVLLANKCDQGKDVLMNNGLKMDQFCKEHGFVGWFETSAKENINIDEASRCLVKHILANECDLLESIEPDIVKPHLTSPKVVSCSGCAKS [T23N]	disrupting interaction
